How the values were obtained:
[1] = target: SyMRP, MoxR AAA+ ATPase of Synechococcus sp. strain NKBG15041c, with a His-tag at the C-terminus (Synechococcus sp. strain NKBG15041c); test: atomic force microscopy; high-speed AFM, sample on Ni2+-coated mica, washed with 50 mM Tris-HCl pH 7.5
[2] = target: SyMRP, MoxR AAA+ ATPase of Synechococcus sp. strain NKBG15041c, with a His-tag at the C-terminus (Synechococcus sp. strain NKBG15041c); test: negative-stain transmission electron microscopy; carbon-coated copper grids, 2.5% uranyl acetate, 50,000x, 100 kV
[3] = target: SyMRP, MoxR AAA+ ATPase of Synechococcus sp. strain NKBG15041c, with a His-tag at the C-terminus (Synechococcus sp. strain NKBG15041c); test: SEC; HPLC gel filtration column SB-804HQ, 50 mM Tris-HCl pH 7.5, 0.1 mM EDTA, 150 mM NaCl, 0.5 mL/min; mass from marker proteins (apparent)
[4] = target: SyMRP, MoxR AAA+ ATPase of Synechococcus sp. strain NKBG15041c, with a His-tag at the C-terminus (Synechococcus sp. strain NKBG15041c); test: AUC; sedimentation velocity, 2.0 mg/mL SyMRP, 50 mM Tris-HCl pH 8.0, 200 mM NaCl, without ATP, 25 °C, 60,000 rpm, interference optics, SEDFIT
[5] = target: SyMRP, MoxR AAA+ ATPase of Synechococcus sp. strain NKBG15041c, with a His-tag at the C-terminus (Synechococcus sp. strain NKBG15041c); test: as above; remark: listed apart in the source
[6] = target: SyMRP, MoxR AAA+ ATPase of Synechococcus sp. strain NKBG15041c, with a His-tag at the C-terminus (Synechococcus sp. strain NKBG15041c); test: AUC; sedimentation velocity, 2.0 mg/mL SyMRP, 50 mM Tris-HCl pH 8.0, 200 mM NaCl, with 1 mM ATP, 25 °C, 60,000 rpm, interference optics, SEDFIT

SyMRP, MoxR AAA+ ATPase of Synechococcus sp. strain NKBG15041c, with a His-tag at the C-terminus (enzyme)
stoichiometry N [1]: 6
stoichiometry N [2]: 6
stoichiometry N [3]: 6
stoichiometry N [4]: 6
weight fraction w of the 4.18 S component (small oligomer) [4]: 4%
weight fraction w of the 7.60 S component (hexamer) [4]: 91.4%
stoichiometry N [5]: 2
weight fraction w of the 4.26 S component (small oligomer) [6]: 2.6%
weight fraction w of the 7.53 S component (main component) [6]: 90.9%

Source: PMC11432383
